The labels stand for the following.
T1: rat GDNF (glial cell line-derived neurotrophic factor) (rat, UniProt Q07731 78-211)
T1 sequence (looked up): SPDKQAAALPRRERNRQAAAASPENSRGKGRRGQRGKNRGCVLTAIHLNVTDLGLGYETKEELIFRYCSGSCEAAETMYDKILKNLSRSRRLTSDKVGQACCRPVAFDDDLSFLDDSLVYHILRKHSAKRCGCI

T2: human neurturin (NRTN) (human, UniProt Q99748 96-197)
T2 sequence (looked up): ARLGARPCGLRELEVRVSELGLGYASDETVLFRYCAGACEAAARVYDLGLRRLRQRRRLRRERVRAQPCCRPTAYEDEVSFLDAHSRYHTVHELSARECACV

B1: human persephin (PSPN) (ligand, UniProt O60542 61-156, looked up)
chain: ALSGPCQLWSLTLSVAELGLGYASEEKVIFRYCAGSCPRGARTQHGLALARLQGQGRAHGGPCCRPTRYTDVAFLDDRHRWQRLPQLSAAACGCGG
notes: Cross-linking gels show monomer (approx. 14-16 kDa) and dimer (32 kDa) bands; also called unlabeled PSPN
B2: human GFRα4, GPI-anchored isoform a (GFRα4a) (receptor)
chain: VGGNRCVDAAEACTADARCQRLRSEYVAQCLGRAAQGGCPRARCRRALRRFFARGPPALTHALLFCPCAGPACAERRRQTFVPSCAFSGPGPAPPSCLEPLNFCERSRVCRPRLLAFQVSCTPAPSAPDGCLLDQGARCLRAYAGLVGTAVTPNYVDNVSARVAPWCDCGASGNRREDCEAFRGLFTRNRCLDGAIQAFASGWPPVLLDQLNPQGDPEHSLLQVSSTG
modifications: GPI anchor (released by PI-PLC)
notes: Expressed from full-length GFRA4a cDNA (pCR3.1) in mouse Neuro-2a cells (endogenous Ret), in CHO cells (no Ret) or microinjected into mouse SCG neurons; also called hGFRα4; GFRA4a

In assay [1] the target is B2. Description: displacement of 0.9 nM [125I]PSPN by unlabeled PSPN from GFRA4a-transfected Neuro-2a cells (endogenous Ret), 4 hrs on ice. The method, then:
(§1) J. Milbrandt and E. M. Johnson, Jr.). […] was calculated using Cheng-Prusoff equation (McGonigle, et al., 1994).

For assay [2], the target named is T1, rat GDNF (glial cell line-derived …). Description: displacement of 0.9 nM [125I]PSPN from GFRA4a-transfected Neuro-2a cells. How it is done:
as §1

In the next assay the target is T2, human neurturin (NRTN). The assay is described as above. The method, then:
as §1

The assay “human persephin (PSPN)” addresses B1. The experiment in a line: displacement of [125I]PSPN from GFRA4a-transfected Neuro-2a cells; KD calculated using Cheng-Prusoff equation. How it is done:
as §1

For 2 molecules, IC50, binding result and Kd results are on record in patent US7488588 (LICENTIA, dated 2009).

In the case of B1, the half-inhibitory concentration (IC50) – broadly, the concentration needed to halve the response being measured – in assay [1] was 1 nM.

For B2, the binding result in assay [2] is listed as “no binding (tested: up to 300 nM)”; in the assay with human neurturin (NRTN), “no binding (tested: up to 200 nM)”. Besides, in the assay with human persephin (PSPN), the dissociation constant Kd (usually a measure of binding affinity in units of concentration) is approximately 0.1 nM.
